“And” between values parts separate entries of the source, which are not always exact repeats. Identical values can stand only once.
Target: T1, CRF2-4/IL-22RA heterodimeric receptor on BaF3/CRF2-4/IL-22RA cells (human, UniProt Q08334 20-325, limits assumed)
T1 sequence 1: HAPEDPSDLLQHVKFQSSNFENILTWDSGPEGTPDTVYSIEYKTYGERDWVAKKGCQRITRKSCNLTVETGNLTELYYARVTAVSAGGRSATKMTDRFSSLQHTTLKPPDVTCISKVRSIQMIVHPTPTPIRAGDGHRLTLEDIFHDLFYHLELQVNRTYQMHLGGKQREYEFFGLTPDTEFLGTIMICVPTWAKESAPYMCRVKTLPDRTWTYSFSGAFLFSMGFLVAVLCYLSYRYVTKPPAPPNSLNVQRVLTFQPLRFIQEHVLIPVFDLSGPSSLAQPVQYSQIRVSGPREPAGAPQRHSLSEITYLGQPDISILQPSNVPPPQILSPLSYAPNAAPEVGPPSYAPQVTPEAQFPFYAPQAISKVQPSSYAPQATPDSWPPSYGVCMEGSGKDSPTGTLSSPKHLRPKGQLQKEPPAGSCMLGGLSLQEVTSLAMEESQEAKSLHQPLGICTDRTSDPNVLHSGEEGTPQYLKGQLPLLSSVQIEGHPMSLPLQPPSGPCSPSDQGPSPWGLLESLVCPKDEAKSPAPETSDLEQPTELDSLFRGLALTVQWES
T1 sequence 2: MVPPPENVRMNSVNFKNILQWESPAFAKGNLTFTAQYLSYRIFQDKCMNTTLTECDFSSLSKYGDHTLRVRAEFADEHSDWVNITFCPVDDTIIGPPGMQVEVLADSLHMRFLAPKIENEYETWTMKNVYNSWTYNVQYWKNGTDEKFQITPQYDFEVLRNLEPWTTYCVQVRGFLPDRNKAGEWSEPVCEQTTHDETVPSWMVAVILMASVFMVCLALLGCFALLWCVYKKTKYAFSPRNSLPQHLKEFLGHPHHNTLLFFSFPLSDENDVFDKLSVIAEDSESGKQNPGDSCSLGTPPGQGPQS
Test: cell-based or functional assay

B1: IL-22-CEE (human IL-22 polypeptide with C-terminal GluGlu (EE) tag, purified from BHK 570 cells) (ligand)
chain: LLLALLVQGGAAAPISSHCRLDKSNFQQPYITNRTFMLAKEASLADNNTDVRLIGEKLFHGVSMSERCYLMKQVLNFTLEEVLFPQSDRFQPYMQEVVPFLARLSNRLSTCHIEGDDLHIQRNVQKLKDTVKKLGESGEIKAIGELEYMPME
proliferation of BaF3/CRF2-4/IL-22RA cells (Alamar Blue): ~15 fold over background and 2 fold induction

From patent US20040209330A1 (ZymoGenetics, published 2004)
